Test results from patent US20140294819A1 (NVIP, published 2014).

Assays:
[1] = target: canine CD20 cyclic (oxidised, disulphide-bonded) peptide SEQ ID NO:2 (canine); experiment: ELISA, biotinylated oxidised peptide on streptavidin plate; conditions: scale: fold of the binding to human CD20 peptide
[2] = target: T1, canine CD20 cyclic (oxidised, disulphide-bonded) peptide SEQ ID NO:2 (canine, disulphide bond between the two cysteine residues (corresponding to positions 167 and 183); N-terminal biotin in the streptavidin-plate assays); experiment: ELISA on cyclised CD20 peptide
T1 construct: Chemically synthesised and oxidised; also called C20; caCD20 peptide
T1 peptide: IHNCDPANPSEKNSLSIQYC

[3] = target: T2, human CD20 cyclic (oxidised) peptide SEQ ID NO:3 (human, disulphide bond between the two cysteine residues; biotinylated); experiment: ELISA on cyclised CD20 peptide
T2 construct: also called H20; human CD20 cyclic peptide
T2 peptide: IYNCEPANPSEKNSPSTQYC

[4] = target: T3, murine CD20 cyclic (oxidised) peptide SEQ ID NO:6 (murine, disulphide bond between the two cysteine residues; biotinylated); experiment: ELISA on cyclised CD20 peptide
T3 construct: also called M20; mouse CD20 peptide
T3 peptide: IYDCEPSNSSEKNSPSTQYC

[5] = target: T4, feline CD20 cyclised peptide SEQ ID NO:4 (feline, cyclised by a disulphide bond between the two cysteine residues); experiment: ELISA on cyclised CD20 peptide
T4 construct: also called feline CD20 peptide
T4 peptide: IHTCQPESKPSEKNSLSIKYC

[6] = target: T1, canine CD20 cyclic (oxidised, …); experiment: ELISA, CHO supernatant on canine CD20 cyclic peptide, dose response
From the text: This confirms the data with Bly-1 above (and by extension its humanised variant GA101) that this is a further example of a Type II anti-human CD20 monoclonal antibody that also binds to a common epitope on canine CD20, thus validating the use of the structurally constrained shared epitope on canine CD20 as a novel target for monoclonal antibodies.

B1-H299 (Beckmann Coulter) murine Type II anti-human CD20 monoclonal antibody
binding relative to the binding to human CD20 peptide [1]: 0.167

B1: caninised RF2, HCC isotype (antibody)
heavy: EVQLVQSGGGLVKPTESLTISCVISGFSLTSYGVHWVRQSPGKGLEWLGVIWSGGSIDYNAAFISRLSISKDNSKSTVFIRMNSLRADDTAIYYCARGPRKFYYFGMDYWGQGTSVTVSSASTTAPSVFPLAPSCGSQSGSTVALACLVSGYIPEPVTVSWNSVSLTSGVHTFPSVLQSSGLYSLSSMVTVPSSRWPSETFTCNVAHPATNTKVDKPVAKECECKCNCNNCPCPGCGLLGGPSVFIFPPKPKDILVTARTPTVTCVVVDLDPENPEVQISWFVDSKQVQTANTQPREEQSNGTYRVVSVLPIGHQDWLSGKQFKCKVNNKALPSPIEEIISKTPGQAHQPNVYVLPPSRDEMSKNTVTLTCLVKDFFPPEIDVEWQSNGQQEPESKYRMTPPQLDEDGSYFLYSKLSVDKSRWQRGDTFICAVMHEALHNHYTQISLSHSPGK
light: DIVMTQTPLSLSVSQEEEASISCRSSQNIVHSNGNTYVEWYLQKPGQSPKLLIYKVSNRFSGVPDRFSGSGSGTDFTLKISRVEAEDAGVYYCFQGSHVPLTFGAGTKLELKRNDAQPAVYLFQPSPDQLHTGSASVVCLLNSFYPKDINVKWKVDGVIQDTGIQESVTEQDKDSTYSLSSTLTMSSTEYLSHELYSCEITHKSLPSTLIKSFQRSECQRVD
notes: also called caRF2-C
binding result [2]: binds
binding result [3]: binds
binding result [4]: binds
binding result [5]: binds

B2: recombinant caninised GA101 (full length canine antibody) (antibody, V domains shown)
VH: EVQLVQSGGEVVKPGGSLKVSCVASGYAFSYSWINWVRQAPGQGMEWVGRIFPGDGDTDYNGKFKGRVTITRDNSKSTAYLELSSLRSEDTAVYYCARNVFDGYWLVYWGQGTLVTVSS
VL: DIVMTQTPLSLSVTPEEPASISCRSSKSLLHSNGITYLYWYLQKPGQSPQLLIYQMSNLVSGVPDRFSGSGSGTDFTLKISRVEAEDVGVYYCAQNLELPYTFGAGTKVEIKR
notes: Tested as CHO cell supernatant
binding result [6]: binds
